Source: patent publication EP4545563A1 (Foreseen Technology (Beijing) Co., Ltd., dated 2024)

Columns and labels:
[1] = molecular target: T1, ITGA2 protein on the surface of human tumor cells (HuCCT1, A431) (human, UniProt P17301 30-1181); experiment: flow cytometry on HuCCT1 cells, goat anti-human IgG (H+L) secondary antibody
T1 construct: whole, on cells; Endogenously expressed on the cell lines; the cell line of each entry is named under assay or readout; also called Integrin alpha-2; ITGA2-positive HuCCT1 cells
T1 sequence (looked up): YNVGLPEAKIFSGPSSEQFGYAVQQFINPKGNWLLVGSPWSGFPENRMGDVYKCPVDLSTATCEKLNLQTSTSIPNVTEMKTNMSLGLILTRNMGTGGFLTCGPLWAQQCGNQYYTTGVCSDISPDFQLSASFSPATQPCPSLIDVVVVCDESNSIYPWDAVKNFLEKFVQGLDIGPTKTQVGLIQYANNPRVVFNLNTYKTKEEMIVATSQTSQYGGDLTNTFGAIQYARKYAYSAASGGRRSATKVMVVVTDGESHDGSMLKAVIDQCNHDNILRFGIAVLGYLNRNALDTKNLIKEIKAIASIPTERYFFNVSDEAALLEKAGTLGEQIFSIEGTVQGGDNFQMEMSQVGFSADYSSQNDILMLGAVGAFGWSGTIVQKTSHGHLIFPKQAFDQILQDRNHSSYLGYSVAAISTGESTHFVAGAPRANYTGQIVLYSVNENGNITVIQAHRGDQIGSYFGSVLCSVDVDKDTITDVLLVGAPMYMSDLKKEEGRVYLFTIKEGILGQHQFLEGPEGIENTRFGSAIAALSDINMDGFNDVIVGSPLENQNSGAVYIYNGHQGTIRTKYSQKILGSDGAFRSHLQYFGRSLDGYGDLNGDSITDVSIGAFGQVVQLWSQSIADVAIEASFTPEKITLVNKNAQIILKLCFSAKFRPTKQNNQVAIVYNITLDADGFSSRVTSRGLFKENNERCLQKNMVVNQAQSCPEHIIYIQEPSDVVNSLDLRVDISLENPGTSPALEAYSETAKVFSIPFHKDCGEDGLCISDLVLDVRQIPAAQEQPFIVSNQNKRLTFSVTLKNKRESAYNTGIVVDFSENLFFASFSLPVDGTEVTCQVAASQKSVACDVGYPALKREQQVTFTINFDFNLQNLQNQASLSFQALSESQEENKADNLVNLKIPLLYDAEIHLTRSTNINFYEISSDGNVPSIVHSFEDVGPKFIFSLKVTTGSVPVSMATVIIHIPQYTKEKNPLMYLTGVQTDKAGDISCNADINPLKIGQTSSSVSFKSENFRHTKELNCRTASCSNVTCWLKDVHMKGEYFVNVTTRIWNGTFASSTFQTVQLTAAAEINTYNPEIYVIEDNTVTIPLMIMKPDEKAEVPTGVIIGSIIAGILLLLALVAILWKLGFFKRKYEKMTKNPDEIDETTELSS

[2] = molecular target: T2, ITGA2-His (human, UniProt P17301 30-1132, limits assumed); experiment: ELISA, plate coated with 2 ug/mL ITGA2-His, anti-human IgG-Fc-HRP detection
T2 construct: also called ITGA2 protein; not shown: His tag
T2 sequence (looked up): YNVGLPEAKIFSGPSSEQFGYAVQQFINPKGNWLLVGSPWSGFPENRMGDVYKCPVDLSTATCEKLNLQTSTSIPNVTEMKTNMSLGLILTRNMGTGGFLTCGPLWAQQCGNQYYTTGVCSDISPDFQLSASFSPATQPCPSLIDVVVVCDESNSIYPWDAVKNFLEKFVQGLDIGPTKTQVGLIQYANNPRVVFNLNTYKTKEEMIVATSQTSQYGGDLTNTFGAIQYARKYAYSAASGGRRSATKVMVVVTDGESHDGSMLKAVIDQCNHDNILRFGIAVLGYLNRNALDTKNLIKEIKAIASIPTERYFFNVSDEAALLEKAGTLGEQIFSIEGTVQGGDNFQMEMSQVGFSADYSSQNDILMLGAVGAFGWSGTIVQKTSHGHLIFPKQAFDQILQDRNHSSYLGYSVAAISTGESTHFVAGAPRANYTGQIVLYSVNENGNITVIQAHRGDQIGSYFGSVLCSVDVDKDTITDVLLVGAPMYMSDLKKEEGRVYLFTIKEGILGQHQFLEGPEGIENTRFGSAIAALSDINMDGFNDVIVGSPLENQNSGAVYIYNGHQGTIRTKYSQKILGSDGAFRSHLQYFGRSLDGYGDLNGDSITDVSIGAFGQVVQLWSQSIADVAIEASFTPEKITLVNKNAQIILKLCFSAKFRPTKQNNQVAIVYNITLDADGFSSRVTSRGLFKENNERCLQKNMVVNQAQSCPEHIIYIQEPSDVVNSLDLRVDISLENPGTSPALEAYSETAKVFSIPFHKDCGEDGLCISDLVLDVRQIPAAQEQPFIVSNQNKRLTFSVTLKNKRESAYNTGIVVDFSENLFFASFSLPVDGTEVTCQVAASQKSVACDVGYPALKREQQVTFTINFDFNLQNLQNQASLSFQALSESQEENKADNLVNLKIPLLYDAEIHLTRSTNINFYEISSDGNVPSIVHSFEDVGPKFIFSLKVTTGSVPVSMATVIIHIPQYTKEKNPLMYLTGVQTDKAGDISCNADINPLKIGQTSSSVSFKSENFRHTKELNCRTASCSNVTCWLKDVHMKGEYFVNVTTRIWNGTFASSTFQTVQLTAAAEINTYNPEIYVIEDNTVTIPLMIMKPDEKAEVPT

B1: Humanized antibody FS002-A10 (antibody, human IgG1, kappa, V domains shown)
VH: QVQLQQSGPGLVKPSQTLSLTCAISGDSVSSDSAAWNWIRQSPSRGLEWLGRTYYRSKWYNDYAVSVKSRITINPDTSKNQFSLQLNSVTSDDTAVYYCARGSWAAPWLWGQGTLVTVSS
VL: NIQLTQSPPFLSASVGDRVTITCRASQDISSFLAWYQQKPGKAPNLLIHAATTLQSGVPSRFSGSGSGTEFTLTISSLRPEDFATYYCQQLHTYPITFGQGTRLEIKR
notes: IgG1 heavy chain, kappa light chain
- EC50 [1]: 1.13 nM
- EC50 [2]: 0.021 nM

B2: Humanized antibody FS002-A1 (antibody, V domains shown)
VH: QVQLVQSGAEVKKPGASVKVSCKASGYTFTSYYMHWVRQAPGQGLEWMGIINPSGGSTSYAQKFQGRVTMTRDTSTSTVYMELSSLRSEDTAVYYCARDISGSYQTDAFDIWGQGTMVTVSS
VL: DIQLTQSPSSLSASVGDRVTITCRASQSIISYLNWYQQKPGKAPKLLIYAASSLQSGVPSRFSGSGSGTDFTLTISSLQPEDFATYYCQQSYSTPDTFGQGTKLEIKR
notes: IgG1 heavy chain, kappa light chain; expressed in ExpiCHO-s cells, Protein A purified
- EC50 [1]: 0.653 nM
- EC50 [2]: 0.029 nM

B3: Humanized antibody FS002-C375 (antibody, human IgG1, kappa, V domains shown)
VH: QVQLQESGPGLVKPSQTLSLTCTVSGGSISSGGYYWSWIRQHPGKGLEWIGYIYYSGSTYYNPSLKSRVTISVDTSKNQFSLKLSSVTAADTAVYYCARVGVALHYGMDVWGQGTTVTVSS
VL: EIVLTQSPATLSLSPGERATLSCRASQSVSSYLAWYQQKPGQAPRLLIYDASNRATGIPARFSGSGSGTDFTLTISSLEPEDFAVYYCQQRSNWPLTFGGGTKVEIKR
notes: as for B1
- EC50 [1]: 2.17 nM
- EC50 [2]: 0.073 nM

B4: Humanized antibody FS002-A36 (antibody, human IgG1, kappa, V domains shown)
VH: QVQLQESGPGLVKPSQTLSLTCTVSGGSISSGGYYWSWIRQHPGKGLEWIGYIYYSGSTYYNPSLKSRVTISVDTSKNQFSLKLSSVTAADTAVYYCARVRLLGGGFDIWGQGTTVTVSS
VL: EIVLTQSPATLSLSPGERATLSCRASQSVSTYLAWYQQKPGQAPRLLIYDTSIRATGIPARFSGSGSGTDFTLTISSLEPEDFAVYYCQQRSNWPLTFGGGTKVEIKR
notes: as for B1
- EC50 [1]: 0.793 nM
- EC50 [2]: 0.022 nM

B5: Humanized antibody FS002-C58 (antibody, human IgG1, kappa, V domains shown)
VH: EVQLLESGGGVVQPGRSLRLSCAASGFTFSSYAMHWVRQAPGKGLEWVAVISYDGSNKYYADSVKGRFTISRDNSKNTLYLQMNSLRAEDTAVYYCARGKYNWFDPWGQGTLVTVSS
VL: EIVLTQSPATLSLSPGERATLSCRASQSVYSSLAWYQQKPGQAPKLLIYDASNRATGVPARFSGSGSGTDFTLTISSLEPEDFALYYCQHRQHWPLTFGGGTKVEIKR
notes: as for B1
- EC50 [1]: 9.48 nM
- EC50 [2]: 0.279 nM

B6: Humanized antibody FS002-C9 (antibody, human IgG1, kappa, V domains shown)
VH: QVQLLESGPGLVKPSQTVSLTCTVSGVSISRGVYSWSWIRQHPGKGLEWIGFIDYNGRTDYNPSLKSRVTISQDTSKNDFSLKLTSVTAADTAIYYCARGLHAFDIWGQGTMVTVSS
VL: NIQMTQSPPSLSASVGDRVAITCRASQDISNSLAWYQQKSGQPPKLLLYDVSKLERGVPSRFSGSGSRTDYTLTISSLQPEDFATYYCQQYSSDPTFGQGSKLEFKR
notes: as for B1
- EC50 [1]: 34.6 nM
- EC50 [2]: 12.1 nM

B7: Humanized antibody FS002-C15 (antibody, human IgG1, kappa, V domains shown)
VH: QLQLQESGPGLVKPSETLSLTCTVSGGSISSSSYYWGWIRQPPGKGLEWIGSIYYSGSTYYNPSLKSRVTISVDTSKNQFSLKLSSVTAADTAVYYCARLTIFGVVLYWGQGTLVTVSS
VL: EIVLTQSPATLSLSPGERATLSCQASQTFSDYLAWYQQKPGQAPRLLIYDASTRATGIPARFSGSGSGTDFTLTISSLEPEDFAVYYCQQRSHWPPGYTFGQGTRVEIKR
notes: as for B1
- EC50 [1]: 2.13 nM
- EC50 [2]: 0.044 nM

B8: Humanized antibody FS002-C216 (antibody, human IgG1, kappa, V domains shown)
VH: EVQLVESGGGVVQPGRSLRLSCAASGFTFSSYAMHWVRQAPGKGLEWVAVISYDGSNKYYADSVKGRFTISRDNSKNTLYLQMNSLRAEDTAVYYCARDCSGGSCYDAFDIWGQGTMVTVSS
VL: EIVLTQSPATLSLSPGERATLSCRASQSVSSYLAWYQQKPGQAPRLLIYDASNRATGIPARFSGSGSGTDFTLTISSLEPEDFAVYYCQQRTNWLMYTFGQGTKLEIKR
notes: as for B1
- EC50 [1]: 0.987 nM
- EC50 [2]: 0.073 nM

B9: Humanized antibody FS002-C153 (antibody, human IgG1, lambda, V domains shown)
VH: QVQLQQWGAELVKPGASVKLSCTASGFNIKDTYMHWVKQRPEQGLEWIGRIDPANGNTKYDPKFQGKATITADTSSNTAYLQLSSLTSEDTAVYYCARSYYRYDGYFDVWGAGTMVTVSS
VL: QSALTQPASVSGSPGQSITISCTGTSSDVGGYNYVSWYQQHPGKAPKLMIYDVSNRPSGVSNRFSGSKSGNTASLTISGLQAEDEADYYCSSFTTITTRVFGGGTKLTVLG
notes: IgG1 heavy chain, lambda light chain
- EC50 [1]: 3.63 nM
- EC50 [2]: 0.087 nM

B10: Humanized antibody FS002-C417 (antibody, human IgG1, kappa, V domains shown)
VH: EVQLVESGGVVVQPGGSLRLSCAASGFTFDDYTMHWVRQAPGKGLEWVSLISWDGGSTYYADSVKGRFTISRDNAKNTLYLQMNSLRAEDTAVYYCARDTGYAMDVWGQGTMVTVSS
VL: NIQMTQSPSSLSASVGDRVTITCRASQSISSYLNWYQQKPGKAPKLLIYAASSLQSGVPSRFSGSGSGTDFTLTISSLQPEDFASYYCQQSYSSWAFGQGTKVEIKR
notes: as for B1
- EC50 [1]: 68.4 nM
- EC50 [2]: 0.156 nM

B11: Vatelizumab (antibody, V domains shown)
VH: QVQLQESGPGLVKPSETLSLTCTVSGFSLTNYGIHWIRQPPGKGLEWLGVIWARGFTNYNSALMSRLTISKDNSKNQVSLKLSSVTAADTAVYYCARANDGVYYAMDYWGQGTLVTVSS
VL: DFVMTQSPAFLSVTPGEKVTITCSAQSSVNYIHWYQQKPDQAPKKLIYDTSKLASGVPSRFSGSGSGTDYTFTISSLEAEDAATYYCQQWTTNPLTFGQGTKVEIK
- EC50 [1]: 0.793 nM
- EC50 [2]: 0.023 nM

B12: Humanized antibody FS002-A15 (antibody, human IgG1, kappa, V domains shown)
VH: RLQLQESGPGLVKPSQTLSLTCTVSGGSISSGGYYWSWIRQHPGKGLEWIGYIYYSGSTYYNPSLKSRVTISVDTSKNQFSLKLSSVTAADTAVYYCARATIYGYFDYWGQGTLVTVSS
VL: EIVLTQSPATLPLSPGERATLSCRASQSVGFYLAWYQQKPGQPPRLLFYDASKRATGIPARFSASGSGTDFTLTISGLEPEDFAVYYCQHRISWPLTFGQGTKVEVKR
notes: as for B1
- EC50 [1]: 0.927 nM
- EC50 [2]: 0.028 nM

B13: Humanized antibody FS002-C241 (antibody, human IgG1, lambda, V domains shown)
VH: RLQLQESGPGLVKPSETLSLTCTVSGGSISSSSYYWGWIRQPPGKGLEWIGSIYYSGSTYYNPSLKSRVTISVDTSKNQFSLKLSSVTAADTAVYYCARRYSYGRDAFDIWGQGTMVTVSS
VL: QSALTQPASVSGSPGQSITISCSGTSSDIGRYNYVSWYQQHPGKAPKLLIFDVSNRPSGVSNRFSGSKSGNTASLTISGLQAEDEADYYCSSYTSTVPYVFGTGTRVAVQG
notes: as for B9
- EC50 [1]: 2.41 nM
- EC50 [2]: 0.116 nM

B14: Humanized antibody FS002-C330 (antibody, V domains shown)
VH: QLQLQESGPGLVKPSGTLSLTCAVSGGSISSSNWWSWVRQPPGKGLEWIGEIYHSGSTNYNPSLKSRVTISVDKSKNQFSLKLSSVTAADTAVYYCARAHSRYYYGLDYWGQGTLVTVSS
VL: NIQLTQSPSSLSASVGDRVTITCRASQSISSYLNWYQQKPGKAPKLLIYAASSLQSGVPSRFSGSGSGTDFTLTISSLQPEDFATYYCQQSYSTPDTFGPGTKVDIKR
notes: as for B1
- EC50 [1]: 2.07 nM
- EC50 [2]: 0.103 nM
